“And” between values parts separate entries of the source, which are not always exact repeats. Equal entries are not always repeated.

B9: Human recombinant TUBB3 (other)
chain: MREIVHIQAGQCGNQIGAKFWEVISDEHGIDPSGNYVGDSDLQLERISVYYNEASSHKYVPRAILVDLEPGTMDSVRSGAFGHLFRPDNFIFGQSGAGNNWAKGHYTEGAELVDSVLDVVRKECENCDCLQGFQLTHSLGGGTGSGMGTLLISKVREEYPDRIMNTFSVVPSPKVSDTVVEPYNATLSIHQLVENTDETYCIDNEALYDICFRTLKLATPTYGDLNHLVSATMSGVTTSLRFPGQLNADLRKLAVNMVPFPRLHFFMPGFAPLTARGSQQYRALTVPELTQQMFDAKNMMAACDPRHGRYLTVATVFRGRMSMKEVDEQMLAIQSKNSSYFVEWIPNNVKVAVCDIPPRGLKMSSTFIGNSTAIQELFKRISEQFTAMFRRKAFLHWYTGEGMDEMEFTEAESNMNDLVSEYQQYQDATAEEEGEMYEDDEEESEAQGPK
notes: Bought protein; immobilised by amine coupling in SPR, in solution in the dot blot; also called tubulin β-3; Tubulin β-3

Test [1] concerns the target T1, assembled microtubules (containing ~25% of TUBB3) (porcine, UniProt F1S6M7 41-471).
T1 construct: also called assembled MTs; MTs
Nature of the test: SPR Biacore T200, 60 sec injection of 10 uM over immobilised microtubules, reference-subtracted. A general note: Surface plasmon resonance follows binding to a sensor surface in real time, without labels.

The test “Human recombinant TUBB3” concerns the target B9. Nature of the test: SPR (Biacore T200), recombinant TUBB3 amine-coupled to a CM5 chip, peptide as analyte at 625 nM to 20 µM.
Test [2] has as its target T2, gp120IIIB (HIV, UniProt P04578 33-511).
T2 construct: Bought protein
Nature of the test: dot blot: 2 µg peptide spotted, 5 µg gp120IIIB in 20 mL, anti-gp120 antibody.
Experimental: Dot blot analysis: CTTs or Helix-A and -B peptides (2 μg each) were spotted on a nitrocellulose membrane and allowed to dry. […] The membranes were washed and then incubated with a mouse anti-gp120 antibody (1:1000; Immunodiagnostics, Inc.) or mouse anti-TUBB3 antibody (1:5000; Covance, NJ) in TBST for 2 hours. Membranes were washed and incubated in goat anti-mouse HP-conjugated secondary antibody (1:20,000; Jackson ImmunoResearch Laboratories, Inc., PA). Visualization of the bands was then accomplished by the addition of PIERCE® SUPERSIGNAL™ West Pico-Stable Peroxidase Solution and Luminol/Enhancer Solution (Pierce Biotechnology, Inc., Rockford, Ill.).
Following incubation with a corresponding HRP-conjugated secondary antibody 1 hour at RT, the immunocomplexes were visualized with chemiluminescence.

For test [3], the target named is T2, gp120IIIB. The test is described as follows: SPR Biacore T200, TUBB3 amine-coupled to CM5, gp120 3.13-100 nM as analyte, 1:1 model; one of two experiments.
In test [4] the target is T3, gp120MN (HIV, UniProt P05877 32-513).
T3 construct: Bought protein; only its gp120 part would apply; also called GP-MN
The test is described as above.

The target of test [5] is T2, gp120IIIB. The test is described as follows: SPR Biacore T200, TUBB3 immobilised, 1:1 model; mean of two experiments.
Experimental: (§1) After ligand capture, the surfaces were deactivated by injecting 1 M ethanolamine for 720 sec at 10 μL/min. HBS-P (10 mM HEPES, pH7.4, 150 mM NaCl, 0.05% P-20) with 2 mM MgCl₂ used as the running buffer. Flow cell 1 on each chip was left empty and used for reference surface. […] Kinetic studies were performed by injecting different concentrations of the analytes in triplicate. The chip surface was regenerated by with 10 mM glycine pH 1.5 injected for 30 sec at a flow rate of 100 μL/min. Each sample was injected for 60 sec (contact time) followed by a dissociation time of 300 sec at a flow rate of 100 μL/min. Data was analyzed with BIACORE® T200™ Evaluation Software (version 1) to determine the equilibrium dissociation constant (KD) from a 1:1 binding model.
(§2) Recombinant TUBB3, tubulin dimer, and assembled MTs from bovine brains were immobilized on a BIACORE® CM5 chip by amine coupling. […] The kinetics of interaction was analyzed using a BIACORE® T200™ instrument. BiaEvaluation software was used to calculate binding affinities based on 1:1 binding model.
The target in test [6] is T3, gp120MN. Described as above.
Experimental: as §1, §2

Consider RAKWNNTLKQIASK (Synthetic peptide from GenScript) [Helix-B peptide], for which the “response (4-1) RU” value in test [1] was 0.2 RU. Moreover, the binding result in the test with Human recombinant TUBB3 is given as “no binding (tested: 20 µM)”.

B1: tubulin α1A/1B C-terminal tail (CTT) peptide, tyrosinated isoform (peptide)
peptide: EGEGEEEGEEY
notes: Synthetic peptide from GenScript; also called α1A/1B tyrosinated isoform
As to B1, in the test with gp120IIIB [2], the binding result is given as “no binding”.

B2: tubulin α4 C-terminal tail (CTT) peptide, detyrosinated isoform (peptide)
peptide: EDEDEGEE
notes: Synthetic peptide from GenScript; also called α4 detyrosinated isoform
For B2, the binding result in the test with gp120IIIB [2] is listed as “no binding”.

B3: tubulin α1A/1B C-terminal tail (CTT) peptide, detyrosinated isoform (peptide)
peptide: EGEGEEEGEE
notes: Synthetic peptide from GenScript; also called α1A/1B detyrosinated isoform
With B3, the binding result with gp120IIIB [2] is on record as “no binding”.

Regarding EEEEGEDEA (Synthetic peptide from GenScript) [tubulin β2A/2B C-terminal tail (CTT) peptide], in the test with gp120IIIB [2], the binding result is reported as “no binding”.

B4: tubulin α4 C-terminal tail (CTT) peptide, tyrosinated isoform (peptide)
peptide: EDEDEGEEY
notes: Synthetic peptide from GenScript; also called α4 tyrosinated isoform
As to B4, the binding result in the test with gp120IIIB [2] is on record as “no binding”.

B5: tubulin α1A/1B C-terminal tail (CTT) peptide, more basic variant EGEGEEEGQQQ (peptide)
peptide: EGEGEEEGQQQ
notes: Synthetic variant peptide from GenScript; also called α1A/1B more basic
As to B5, in the test with gp120IIIB [2], the binding result is listed as “no binding”.

B6: tubulin α1A/1B C-terminal tail (CTT) peptide, more basic variant EGEGEEEGQQQQ (peptide)
peptide: EGEGEEEGQQQQ
notes: as for B5
As to B6, the binding result in the test with gp120IIIB [2] was “no binding”.

B7: tubulin α1A/1B C-terminal tail (CTT) peptide, more basic variant EGEGEEEGQQ (peptide)
peptide: EGEGEEEGQQ
notes: as for B5
On to B7, for which the binding result in the test with gp120IIIB [2] is “no binding”.

B8: tubulin α4 C-terminal tail (CTT) peptide, Δ2 isoform (peptide)
peptide: EDEDEGE
notes: Synthetic peptide from GenScript; also called α4 Δ2 isoform
On to B8, for which, in the test with gp120IIIB [2], the binding result is “no binding”.

Broadly, the Kd is the concentration at which binding is half-saturated. As for B9, the Kd was 7.91 nM and 7.05 nM with gp120IIIB [3]; 901 nM and 579 nM with gp120MN [4]; 7.5 nM with gp120IIIB [5]; 740 nM in the test with gp120MN [6].

(Values after US20150239933A1 (GEORGETOWN UNIVERSITY, published 2015).)
